The target in experiment [1] is ZGGS15, anti-LAG-3/TIGIT bispecific IgG4 antibody (human). As to the kind of experiment: BLI; ZGGS15 or BM (4 µg/mL) loaded to protein A probes; FcγRI 30 to 1 nM in solution; 150 s association, 200 s dissociation; BLI kinetics assay buffer; 25 °C, 1000 rpm. In general terms: In BLI a coated tip is dipped into the sample, and binding shifts an interference pattern.
The target of experiment [2] is Relatlimab analog, anti-LAG-3 benchmark (human). Described as above.

What is called Kd is the equilibrium constant for the complex coming apart.

Sequence of Relatlimab analog, anti-LAG-3 benchmark (human) (heavy, as listed by the source, chain 1 of 2): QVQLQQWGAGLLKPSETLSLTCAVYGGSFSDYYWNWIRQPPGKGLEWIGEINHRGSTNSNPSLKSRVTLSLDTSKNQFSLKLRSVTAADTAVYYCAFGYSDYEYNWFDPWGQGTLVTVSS
Sequence of Relatlimab analog, anti-LAG-3 benchmark (human) (light, as listed by the source, chain 2 of 2): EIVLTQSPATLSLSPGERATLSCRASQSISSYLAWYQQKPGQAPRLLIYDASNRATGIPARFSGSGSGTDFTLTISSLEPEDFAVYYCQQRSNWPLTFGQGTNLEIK

With “human Fc-gamma receptor I (FcγRI) (from UniProt P12314 16-374)”, the results for the Kd in experiment [1] and in experiment [2] were 2.6 nM and 3 nM, respectively.

Source of the values: publication PMC11082181.
